This note sets out measurements from patent US20050130265, “Aiolos, Helios, Daedalos and Ikaros: genes, polypeptides, regulatory elements and uses thereof” (published 2005).

This data set deals with T1, Aiolos (GST fusion) (Mus musculus, UniProt O08900 SEQ:1-507).
T1 chain: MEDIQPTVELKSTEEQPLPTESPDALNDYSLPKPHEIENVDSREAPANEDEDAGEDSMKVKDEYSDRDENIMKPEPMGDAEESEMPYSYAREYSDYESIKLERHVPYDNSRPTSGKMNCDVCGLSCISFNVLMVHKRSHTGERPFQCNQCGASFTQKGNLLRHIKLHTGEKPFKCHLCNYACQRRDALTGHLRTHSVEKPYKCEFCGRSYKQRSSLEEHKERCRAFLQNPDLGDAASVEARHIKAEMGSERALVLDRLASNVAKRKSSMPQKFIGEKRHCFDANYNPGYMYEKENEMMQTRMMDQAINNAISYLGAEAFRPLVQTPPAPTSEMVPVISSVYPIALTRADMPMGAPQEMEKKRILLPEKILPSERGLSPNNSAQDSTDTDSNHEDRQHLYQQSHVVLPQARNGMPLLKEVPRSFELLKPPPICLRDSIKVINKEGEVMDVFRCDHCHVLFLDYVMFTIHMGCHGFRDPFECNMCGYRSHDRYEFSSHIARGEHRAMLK
The data set can be described thus: EMSA; 0.5 ug protein, 1-2 ng DNA; binding stated generally for Ikaros consensus sites. The following applies: tags: GST. Here is the method:
DNA binding assays (EMSA) were performed essentially as described in Molnar et al. (1994) Mol. Cell. Biol. 14, 8292-8303. GST-Aiolos and Ikaros fusion proteins and their GST fusion partner (0.5 μg) were tested for binding to the IkBD1-[…] (SEQ ID NO:11) oligonucleotide which contains a high affinity Ikaros binding site (100,000 cpm/reaction which equals 1 to 2 ngs of DNA). Competition assays were performed with Ik-BS 1 and with Ik-BS8 TCAGCTTTTGGGggTACCCTGTCA (SEQ ID NO:12) oligonucleotides used at 5-100× molar excess.

B1: IkBS1 (dsDNA)
DNA 1: TCAGCTTTTGGGAATACCCTGTCA
DNA 2: TGACAGGGTATTCCCAAAAGCTGA
B1: the binding result is “binds”.
